Data: paper PMC3089553 (The Journal of Biological Chemistry, 2011)

Biological target: T1, His-CTNNBL1(Δ1–76) (UniProt Q8WYA6 77-563)
T1 sequence (looked up): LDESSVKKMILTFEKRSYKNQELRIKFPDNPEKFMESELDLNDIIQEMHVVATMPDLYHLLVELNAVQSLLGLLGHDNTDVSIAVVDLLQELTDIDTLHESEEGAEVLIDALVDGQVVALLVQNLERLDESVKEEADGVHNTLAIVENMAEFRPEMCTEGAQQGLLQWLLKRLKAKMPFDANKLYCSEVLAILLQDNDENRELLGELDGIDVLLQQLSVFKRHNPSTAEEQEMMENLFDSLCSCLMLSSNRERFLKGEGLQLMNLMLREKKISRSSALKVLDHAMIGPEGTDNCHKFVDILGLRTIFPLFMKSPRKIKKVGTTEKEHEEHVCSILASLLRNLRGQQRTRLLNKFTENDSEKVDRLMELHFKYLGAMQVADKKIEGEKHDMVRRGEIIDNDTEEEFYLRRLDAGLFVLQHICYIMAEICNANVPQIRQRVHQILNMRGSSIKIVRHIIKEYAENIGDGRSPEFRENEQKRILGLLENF
Experiment: ITC

- dH1 (site 1): -6.19 ± 0.46 kJ/mol
- dH2 (site 2): -13.7 ± 0.628 kJ/mol
B1: CDC5L NLS3 peptide (peptide)
peptide: KKRKRKR
